Biological target: T1, hepatocyte growth factor beta chain (HGF β) containing a Cys604 to Ser mutation (human, UniProt P14210 495-728)
T1 construct: Expressed in insect cells (baculovirus secretion vector pAcGP67), Val495 placed immediately after the secretion signal; Numbering follows full length HGF starting with MWV as 1-3; also called HGF β-chain; HGF-beta
Experiment: complex formation in solution, size exclusion chromatography
Method: Elution fractions were assayed with SDS-PAGE, and those containing the complex were pooled. […] For this, Met, previously purified using Nickel chromatography as described above, was mixed with a combination of PNGase F (Roche) and Endoglycosidase A (Roche) at 1:100 enzyme:Met concentration and incubated at room temperature for 3 hours.

T1 sequence (P14210 other isoform, or with tags, fused parts or gaps limits assumed): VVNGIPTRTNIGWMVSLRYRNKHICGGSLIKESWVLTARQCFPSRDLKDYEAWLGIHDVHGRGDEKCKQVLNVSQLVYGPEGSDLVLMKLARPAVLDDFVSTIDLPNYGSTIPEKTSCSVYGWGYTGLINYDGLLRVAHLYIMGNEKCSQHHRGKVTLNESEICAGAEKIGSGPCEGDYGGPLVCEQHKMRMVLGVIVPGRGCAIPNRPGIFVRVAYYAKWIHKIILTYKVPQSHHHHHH

binding result: binds
B1: extracellular fragment of the Met receptor containing residues 25 to 567 (Sema and PSI domain) with thrombin cleavable site and C-terminal (His)8-tag (receptor)
chain: ECKEALAKSEMNVNMKYQLPNFTAETPIQNVILHEHHIFLGATNYIYVLNEEDLQKVAEYKTGPVLEHPDCFPCQDCSSKANLSGGVWKDNINMALVVDTYYDDQLISCGSVNRGTCQRHVFPHNHTADIQSEVHCIFSPQIEEPSQCPDCVVSALGAKVLSSVKDRFINFFVGNTINSSYFPDHPLHSISVRRLKETKDGFMFLTDQSYIDVLPEFRDSYPIKYVHAFESNNFIYFLTVQRETLDAQTFHTRIIRFCSINSGLHSYMEMPLECILTELVPRGSTKKEVFNILQAAYVSKPGAQLARQIGASLNDDILFGVFAQSKPDSAEPMDRSAMCAFPIKYVNDFFNKIVNKNNVRCLQHFYGPNHEHCFNRTLLRNSSGCEARRDEYRTEFTTALQRVDLFMGQFSEVLLTSISTFIKGDLTIANLGTSEGRFMQVVVSRSGPSTPHVNFLLDSHPVSPEVIVEHTLNQNGYTLVITGKKITKIPLNGLGCRHFQSCSQCLSAPPFVQCGWCHDKCVRSEECLSGTWTQQICLPAIYKHHHHHHHH
notes: Expressed in insect cells (pAcGP67A); The complex was obtained with the unprocessed, single chain Met (not cut by thrombin); For better diffraction Met was deglycosylated with PNGase F and Endoglycosidase A before complex formation; also called Met fragment; Met Sema domain

Reference: US20080293923A1 (Genentech, published 2008)
